Paper PMC13678254, “Exploring the bistable equilibrium of methylated CpG DNA recognition by the MBD2 protein”

Biological target: MBD2 MBD S189A (Homo sapiens, UniProt Q9UBB5 150-214, S189A)
Experiment: fluorescence polarization; 3 mM Mg2+; 10 nM DNA; FP: 10 mM HEPES pH 7.5, 50 mM NaCl, 3 mM MgCl2, 0.1 mM EDTA, 1 mM DTT, 0.02% sodium azide; 10 nM 3'FAM DNA; temperature not stated
Settings: protein: recombinant; tags: thioredoxin/His tag (modified pET32a) removed by TEV protease; label: 3'FAM on forward strand; blunt

Sequence of MBD2 MBD S189A (Q9UBB5 150-214 S189A): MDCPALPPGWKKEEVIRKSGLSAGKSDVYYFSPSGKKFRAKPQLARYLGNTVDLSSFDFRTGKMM

B1: 17-bp symmetrically methylated mCpG DNA, 3'FAM (dsDNA)
DNA 1: GAGGCGCTCGGCGGCAG
DNA 2: CTGCCGCCGAGCGCCTC
modifications: 5-methylcytosine at position 9 of strand 1 and at position 8 of strand 2 (symmetric mCpG)
Kd: 11.5 ± 0.6 µM
